Experimental data reported in the supplement of paper PMC9732359.
± gives the uncertainty stated by the source.

Assay: protein stability index of a GFP-peptide fusion (yeast GPS) (PSI 1-4); higher = more stable; sorted into four equal gates, so the index is relative within each strain
Conditions: doa10∆
Method in brief: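 Sequencing reads from sorted gates were used to score each peptide. The library consisted of tiled 17-residue yeast protein peptides fused downstream of GFP on a Cherry-expressing plasmid, pooled and carried in yeast. Mid-log cultures in leucine-free medium were split into four equal gates by GFP/Cherry ratio, and each gate's plasmids were PCR-amplified and Illumina-sequenced. The protein stability index adds up, over all gates, the read frequency multiplied by the gate number.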
Sequence PQYNMNMGMNNMNNGGK [PGD1] has a protein stability index of 3.42 ± 0.21. With PRFNRDNKVSPAAAAKK [RPS26B] the protein stability index was 2.41 ± 0.12. Work on PSADGADKKDDSESNSE [ITC1] yielded a protein stability index of 2.83 ± 0.083. With PSAEIREAYIENFAKGE [SWP82] the protein stability index was 2.39 ± 0.073. With PSASLKLHHDLKLCLGD [YMR129W/POM152] the protein stability index was 3.06 ± 0.073. Work on PSDVNIDVMKSQIIPLM [SNU114] yielded a protein stability index of 2.15 ± 0.1. For PSENDVFYRMQQLRRAL [RPO31], the protein stability index was 2.03 ± 0.056. In the case of PSFGKRHNKSHTLCNRC [RPL37A], the protein stability index is reported as 2.54 ± 0.1. In the case of PSIIFIDEVDSIATKRF [RPT3], the protein stability index is reported as 3.05 ± 0.096. PSKLVITKLHLDKDRKA [RPL26A] gave a protein stability index of 1.73 ± 0.18. PSLEKSSFTFGSTTIEK [YLR335W/NUP2] showed a protein stability index of 2.17 ± 0.058. Work on PSLNPIPHFIDNNSSLN [PRP8] yielded a protein stability index of 2.3 ± 0.063. With PSPISHVAEIRSALEKG [RPB2] the protein stability index was 1.68 ± 0.076. In the case of PSPKKVAIDQDKITLHD [SIR4], the protein stability index is reported as 2.36 ± 0.064. In the case of PSQGMVVEISNGNTSSK [FAS1], the protein stability index is reported as 3.08 ± 0.057. In the case of PSSMATLLKNLRKKLNF [YJR042W/NUP85], the protein stability index is reported as 2.91 ± 0.078. Work on PSTNAQNVNVPSAFNFT [YOR098C/NUP1] yielded a protein stability index of 2.6 ± 0.046. PSYYYYVDPETTYTYQQ [ROX3] showed a protein stability index of 2.93 ± 0.075. PTGGKAKLSEGTSFRRK [RPS27A] showed a protein stability index of 3.4 ± 0.081. For PTGKEEGDGAKAAISFG [YJL041W/NSP1], the protein stability index was 3.37 ± 0.11. Sequence PTLGERLDNLQDIKKAK [DSN1] has a protein stability index of 1.54 ± 0.082. Work on PTMYTRLCICSGMLFEM [SIN4] yielded a protein stability index of 1.29 ± 0.041. PTTTTGGLFGNSAQNNS [YGR119C/NUP57] gave a protein stability index of 3.11 ± 0.071. Work on PVPESAGKADTSIRLEG [SRB4] yielded a protein stability index of 2.96 ± 0.062. PVSLLNSQLVGKPHFSL [PCI8] showed a protein stability index of 2.1 ± 0.084. In the case of PVSPLDIYSDEASAQKK [RPS2], the protein stability index is reported as 2.74 ± 0.095. Work on PVVINLDAKNKVFVPPK [RPO31] yielded a protein stability index of 2.93 ± 0.12. Work on PWGDYLQLETPAEVGRA [BRR2] yielded a protein stability index of 1.25 ± 0.062. In the case of PYAQKPLQGIFHNAVFN [QCR8], the protein stability index is reported as 2.75 ± 0.057. For PYDSNNSNTNLNSLSPQ [SWI1], the protein stability index was 2.96 ± 0.049. PYLLPYILEAEAAAKEK [QCR7] showed a protein stability index of 1.39 ± 0.07. For PYPGSPMHSIMPNSSLQ [DSN1], the protein stability index was 2.85 ± 0.091. With PYPKSRYNRAVPDSKIR [RPL10] the protein stability index was 3.03 ± 0.049. Sequence QAIAKNNPQVVNAITVA [SNF5] has a protein stability index of 1.85 ± 0.039. In the case of QAINLGQVVLTPLTFAL [RPL14A], the protein stability index is reported as 1.53 ± 0.065. Work on QAQAQAHAQHQPSQQPQ [GAL11] yielded a protein stability index of 2.967 ± 0.022. Work on QARMMQQQSADHDDSTD [NSL1] yielded a protein stability index of 2.76 ± 0.051. Work on QAVETVGQAGRPKKITG [RPN1] yielded a protein stability index of 1.99 ± 0.06. In the case of QDHFHRLNYLYQISAYQ [RPR2], the protein stability index is reported as 2 ± 0.041. Sequence QDKSKKIMNVTTDSLTK [YMR129W/POM152] has a protein stability index of 3.25 ± 0.064. In the case of QDNKQLYQIWIVMVWLK [YDL116W/NUP84], the protein stability index is reported as 2.62 ± 0.058. With QDRIQDVKLVLASNFDN [MED1] the protein stability index was 2.56 ± 0.057. In the case of QDSTSENVKIINYLLTL [RPN2], the protein stability index is reported as 3.42 ± 0.074. QEASQVTFIFGELKRGN [MED11] showed a protein stability index of 2.07 ± 0.062. Sequence QEEEGELEHLTKKSKLE [DSN1] has a protein stability index of 3.02 ± 0.053. In the case of QELELPGEFVTAIAHSI [SNF5], the protein stability index is reported as 2.36 ± 0.049. QENSSKIITLDLSNYAE [SMC1] gave a protein stability index of 3.13 ± 0.1. For QEPELSLDQGDAEEDSQ [SMC4], the protein stability index was 3.45 ± 0.16. QFLEQGLSIHPTQITQY [SRP68] showed a protein stability index of 2.17 ± 0.058. Work on QFNEFIQIMANIDQEGS [PGD1] yielded a protein stability index of 2.29 ± 0.073. QFQKARNNVMLLIATNL [SRB8] showed a protein stability index of 1.74 ± 0.11. Work on QFVPELKEFTAKLRKEL [FAS2] yielded a protein stability index of 1.53 ± 0.061.
